Data from the DeepSol protein solubility set.

test: soluble on expression in E. coli; label from the status in PepcDB or PDB records

Sequence | soluble on expression in E. coli
MGSDKIHHHHHHMGNAAASTRAICHRRCSTYPRMNDFQSLSTEESPAPAGTNPAVNPIARIHGEPVTEIPSDLYIPPDALEVFLDTFQGPLDLLLYLIRKHNLDVLDIAMAELTRQYLAYIEMMRANKLELAAEYLLMAAVLIEIKSRMLLPKPVAKGNEDEVDPRAELVRRLLEYEQMKVAGQKLNKLPQAERDFALTNVWIEQKVIERLPEVNADDLRNAWLILMARLNVNRRHNITREELSVREHMTRILRHVQGHHFVEFSDLFNAAAGAAELVVTFLALLELVKERQVEVSQPSAFGMIYVRPISVLTTV | not soluble
MSLAREPRNIGASVRARLLDRARAERSDFQILLTRYALERLLYRLSASPHRDRFILKGAMLFVTWIADPFRPTRDLDLLGHGDRDTEAIAETFRAICAQPVVDDGVTFDVAALMATPIREELEYGGVRVRTTATIAGARIPIQVDIGFGDAITPAAVEIDYPTLLDAPTPHLRAYPVETVVAEKFAALVTLGVANSRLKDFYDLWVISRTFELRRAALAEAIQRTFERRGTVLPSVVPVGLTDEFAETWAAQWRAFLERDRMAAAPDAFAVTVADLRLFLMPLVVGLKEERIWPPSGPWSPGAAIDEAEGHHHHHH | soluble
QHLNALMNKEILGKKPGKKKKDKTKRPVLYVIDFSGDIKATQVEQLRDEVTSVLSIAKPEDEVLVRLESPGGAVNGYGLAASQLQRIRDKKIPLTVSIDKMAASGGYLMACVANKIIAAPFAIIGSIGVVAQIPNFHRWLKKNNIDVELLTAGEYKRTLTLFAENTEKGRKKFQEDLEKIHTAFREYVLKNRSQLDIDKVATGEHWIAKDAFDLRLVDKLATSDE | not soluble
MSLTTELVDWTHEQKCRKAVAALEKNGFTAVYCPSGREAFDYILTEAVDARSIGFGGSLSVVDLQVIDRLREMDKELLIHGLPGLSLEERVAIMRRQLTCDLFLTGTNALTLSGWLVNIDATGNRVASMFFGPRTVIVVAGRNKIVDGGVTEAIARVKEWASPPNARRLSYKTPCATTGFCSDCNSPDRICRITTVIDRNPRLTDLRVLVVNEDMGLLEHHHHHH | soluble
MIMNQQLNATKKDKLQVIDWLIENFPNAFFKKGNQVKPLKIGIFDDLIDFYERLDTPPFSKKSLREALSYYSASPAYLSCQKPDTARVDIYGNEVDVVTPEQAKYAYQRYQERYGNKKSQELK | not soluble
MILDTSVIIRIFRDRNFFEVLKERIDDDVKITSVTAYELQRGAVYIMLKHGRDYEFKLIRDFLEEVEILSFTPKDSEISAMIWAKLREKGYELNDADIMISAVSIRENEKLVTLDRDFEYISRVSELDVDILEEEL | not soluble
VLLHSKEVAYIAGLMAEELGLDAKLARRAGLLHDIGKAISHELGGSHTDIGVELARKYGEPDAVINAIRAHHEEEPVRYPEVALVCAADALSAA | not soluble
MSSENDFVEFSSMFERIIQGRGDGLSRFLPVIVALAAREDDDDQGSTDQTTRRGDPLSPRFVMIGSRSGLDDFFSDGGKQGRSPALKSEVENMPRVVIGEDKEKYGGSCAICLDEWSKGDVAAEMPCKHKFHSKCVEEWLGRHATCPMCRYEMPVEEVEEEKKIGIWIGFSINAGDRRN | not soluble
MSSLGASFVQIKFDDLQFFENCGGGSFGSVYRAKWISQDKEVAVKKLLKIEKEAEILSVLSHRNIIQFYGVILEPPNYGIVTEYASLGSLYDYINSNRSEEMDMDHIMTWATDVAKGMHYLHMEAPVKVIHRDLKSRNVVIAADGVLKICDFGASRFHNHTTHMSLVGTFPWMAPEVIQSLPVSETCDTYSYGVVLWEMLTREVPFKGLEGLQVAWLVVEKNERLTIPSSCPRSFAELLHQCWEADAKKRPSFKQIISILESMSNDTSLPDKCNSFLHNKAEWRCEIEATLERLKKLERDLSFKEQELKERERRLKMWEQKLTEQSNTPLLLPLAARMSEESYFESKTEESNSAEMSCQITATSNGEGHGMNPSLQAMMLMGFGDIFSMNKAGAVMHSGMQINMQAKQNSSKTTSKRRGKKVNMALGFSDFDLSEGDDDDDDDGEEEDNDMDNSE | soluble
MSVNFFSLITSSWERGLFLKSCKNNSGTDSNRFFSFSVPPNLLDNLLPPLLVRKTLSSSSSKSCGIGGIYFKSSAVNVSEDGLTASTFFSILLPKNFLGITKLFCRIFLLSCPHNYKWFIHLINPFEYENFINIE | soluble
MGSDKIHHHHHHMTKLTAHPQTEGAFTVASLEFLKQLAQHNSRDWFKTHQDEYENTIRTPALRFIEQIQPHIIAISPRLTAVAKKVGGSLMRPQRDSRFSKDKTPYKTNIGIQFRHFQGKDVHAPGLYLHIAEDGCFIAAGIWHPESKALNAIRTCIDENPNGYKKALQSLTNHGFMMDGDSLTRPPKGFDKHHPMLTELKRKDFIAVKNIPFERLCQRDAVHYCAEQLAHCSQLMAYLCFALELDF | not soluble
MSLSEVLDLDGELNLLVWNIYKQNRANWSTQLTELSRDQQLLLLQEANMTPAFKEWIHQLGWDGTQARAFEAFGETAGVINLAKVMPTMACAYTQLEPWLRLPKSAIYARYRLSDGQELVVVNLHAVNFTYGTQEYQQQLIALLDELRDFTGPVIVAGDFNSWSEARMALLSTQLASVGLQEVRFSPDNRTTFINGLPLDHVFYRGLQLEKAEAPISDASDHNPLLVRFRLLNEGHHHHHH | soluble
MSLGGQEKEHLTMRAEEWHLVSGAVSMRGRRPTDEDTMVVVAAIHSHRNIRIQALFDGHGGPNVAQFAANRLQSLFARQKGYSRRDLEKICHALDEELKKNNVRRGGSTGVIMVIEKVEKPEKVIVRGRQILKDPGLTPLKEHYRKQAGPAEEITLGTSETPFRLHVANVGDSRAMLVLEDEYYEMTKDHKPEDPEEKSRILRAGASVTDSEGTSVPRIDGSLALSRSFGDFSLKQGSGSTPDAVISTPDVRQFYAGYNDLLVLFCDGVTEPVASSWPQVAAYTREIFVQTGDVVKTAVALAEQAYSAGSQDNLSAVVTRLRPDPAEEGHHHHHH | soluble
MKILVTSGGTSEAIDSVRSITNHSTGHLGKIITETLLSAGYEVCLITTKRALKPEPHPNLSIREITNTKDLLIEMQERVQDYQVLIHSMAVSDYTPVYMTGLEEVQASSNLKEFLSKQNHQAKISSTDEVQVLFLKKTPKIISLVKEWNPTIHLIGFKLLVDVTEDHLVDIARKSLIKNQADLIIANDLTQISADQHRAIFVEKNQLQTVQTKEEIAELLLEKIQAYHSLEHHHHHH | soluble
MGSDKIHHHHHHMSTPCILCVAITGSLPTKDNNPAVPITISEQIESTHEAFEAGATICHAHVRNDDQTPSSDPEKFERLKEGLEKHCPGMIIQFSTGGRSGAGKARGGMLPLAPDMASLSVGSNNFPTRVYENPPDLVDWLAGEMRTHQVTPEVEAFDLSHILNAIALHKSGALYGKLYVQFVMGVKNAMPADKEVFDFYVDLVKRRAPDANWCAAGIGANQLVVNEWAIAAGGHTRAGLEDNVRLDRNTLAPSNAALIRRAAELCEKYERPVATWQQAREILDVPLRA | not soluble
MGSDKIHHHHHHASNPVLRISDGWVADTIAPALIHYRFAGYDSISQAHQNVDVLEVDLTSPSYDIQLVYEEHGDSLSSVAERNNAAAAINGTYEAEASFIKIGGRLLAQNRLDSTHIRYWKHEGAFLFDDDNKNIDIRFASDSTFLSHPAANILSGAPMLIDNNDPVGLNFTGNVEGMDLNKLDYEDFRRHQGVRHPRTAVALTEHKKLLLITVDGRSTQAAGMSANELTRFLLTYFCPQSALNLDGGGSTTMWIASSEQRVGGVVNHPTDNKKFDHAGQRRVTSFIVIKSSENHE | not soluble
MSLALNPAVAPIKSIEFIPVNYQASNWSQNTVVVKVTDENGVYGLGEADGSPDAILAYANIETEHKWLTNITEKAIGRLPIEINAIWDAMYDATQWQGMRGLGMFALSGIDMALYDLAGKQLGVPAYQLLGGTNKDKVHPYLTLYPAIPVDASLDVAIKGYAPLLEKAKAHNIRAVKVCVPIKADWSTKEVAYYLRELRGILGHDTDMMVDYLYRFTDWYEVARLLNSIEDLELYFAEATLQHDDLSGHAKLVENTRSRICGAEMSTTRFEAEEWITKGKVHLLQSDYNRCGGLTELRRITEMATANNVQVMPHNWKTGITSAAAIHYQFAVGNAPYFEYVHPEFCDGELRKYLVTPEAELVDGGFAKPTAPGLGIDLNQEFLASLEGHHHHHH | soluble
QLLEPIRDFEARKCPVHGKTMELFCQTDQTCICYLCMFQEHKNHSTVTVEEAKAEKETE | soluble
MSTNITFHASALTRSERTELRNQRGLTIWLTGLSASGKSTLAVELEHQLVRDRRVHAYRLDGDNIRFGLNKDLGFSEADRNENIRRIAEVAKLFADSNSIAITSFISPYRKDRDTARQLHEVATPGEETGLPFVEVYVDVPVEVAEQRDPKGLYKKAREGVIKEFTGISAPYEAPANPEVHVKNYELPVQDAVKQIIDYLDTKGYLPAKKE | soluble
MAEVVVIGAGLSGTLMAYELLPQLGKDDRLSVISQGAIYHFVPSNPWVAVGWRKRDEIEIDLVDIMKRKGVRLLTQGAKRLHPTENRVELSDGTSINYDYLVVATGPELAFDEIPGLGPQGHTQSICHVDHASHAKDAFEKLAARPGPVVIGAVQGASCFGPAYEFLFILETELRRRKLRDQVPMTFVTSEPYVGHLGLDGVGDTKGLLEGEMREKHVKWITNARVKGVEAGKMVVEELGEGGAVHKTHELPFAYSMMLPAFRGVEAVRGIDKLTNPRGFVIVDKHQRNPAFPNVFAVGVCVAIAPVGATPVSVGVPKTGFMIESMVTATALNIGALLRGKEPSAQPTWNAICLADFGDSGVAFLAQPQIPPRNVNWSSKGEWVHYAKVAFEKYFLRKMRRGESEPFYERFLLDKLNIAKIKEVRTGTLEHHHHHH | soluble
GMTSPSIESGARERTRRAILDAAMLVLADHPTAALGDIAAAAGVGRSTVHRYYPERTDLLRALARHVHDLSNAAIERADPTSGPVDAALRRVVESQLDLGPIVLFVYYEPSILADPELAAYFDIGDEAIVEVLNRASTERPEYPPGWARRVFWALMQAGYEAAKDGMPRHQIVDAIMTSLTSGIITLPRT | soluble
MISSTKLSILALALVGAVLARPQFPGGPPPGMSAVPPPIAAVLPPETLARLEAIHADSSLSELEKHKAIDTIMVNLPEEVHDRIPPPPGFAQLPAEVQAQLKTIHRDKNLDFQERQAAIHGVLENLAPEFKRLLPPPPPGFPQRRQ | soluble
MRRQRRSITDIICENCNYLPTKRSRNKRKPIPKESDVKTFNYTAHLWDIRWLRERARKTR | not soluble
MTDKLPLALFLMGPTASGKTELAIRLRQKFPVEIISVDSALIYKGMDIGTAKPDERELSLAPHRLIDILDPSESYSAADFRRDALQAMDDIVAEGKIPLLVGGTMLYYKALLEGLSPLPAANPEIRQQIEQEALTKGWSVLHDELKEIDPVSAARIHPNDPQRLSRALEVYRISGKTLTELTQTKGESLPYRVKQFAIAPKDRAELHRRIELRFDKMMEAGFEEEMKALYARKDLHPDLPSIRCVGYRQMWEYLDGECTRDEAVFRGVCATRQLAKRQITWLRSWDDLTWLDSDNIEQALETMSEAIASDLEHHHHHH | soluble
MKFICPLFVVNNMEISRNFYEKVLNQKVQYDFGENVSFESGFAIHLKPHFSELTGINRNDIIQKSNNSELYFEEEDLDSFLKKLKEMNSIEYVHELKEQPWGQRVIRFYDPDMHIIEVGEPMESVVKRLLSEGLSVEETSKRTLMPEEFVRQFLLEHHHHHH | soluble
GPLGSAQTLQMEIPNFGNSILECLNEQRLQGLYCDVSVVVKGHAFKAHRAVLAASSSYFRDLFNNSRSAVVELPAAVQPQSFQQILSFCYTGRLSMNVGDQDLLMYTAGFLQIQEIMEKGTEFFLKVSS | soluble
